The source of these data is patent US20220089704A1 (published 2022).

In assay [1] the target is Human tau (human, UniProt P10636 1-441). The experiment in a line: direct binding ELISA. On the technique in general: In an ELISA, binding on a coated surface is turned into a signal by an enzyme label.
Assay [2] has as its target Human alpha-synuclein (human, UniProt P37840 1-140). Briefly: direct binding ELISA.

For orientation: EC50 means the concentration needed to bring the measured effect to its halfway point.

Chain of Human tau (P10636 other isoform, or with tags, fused parts or gaps): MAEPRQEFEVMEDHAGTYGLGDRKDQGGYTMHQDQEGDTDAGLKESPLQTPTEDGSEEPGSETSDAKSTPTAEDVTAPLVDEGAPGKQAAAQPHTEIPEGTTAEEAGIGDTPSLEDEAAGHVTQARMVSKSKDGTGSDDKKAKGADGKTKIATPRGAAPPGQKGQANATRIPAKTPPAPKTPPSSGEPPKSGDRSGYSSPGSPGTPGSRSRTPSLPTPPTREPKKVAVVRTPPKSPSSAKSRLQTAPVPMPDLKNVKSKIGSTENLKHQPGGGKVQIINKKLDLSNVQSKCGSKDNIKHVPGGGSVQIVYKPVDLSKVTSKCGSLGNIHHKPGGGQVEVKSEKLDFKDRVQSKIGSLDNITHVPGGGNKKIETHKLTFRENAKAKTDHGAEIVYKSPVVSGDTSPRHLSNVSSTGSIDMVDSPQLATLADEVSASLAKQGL

B1: 6C5 hIgG1 (antibody, V domains shown)
VH: QVQLVESGGGVVQPGRSLRVSCAASGFTFSSYDMHWVRQAPGKGLEWVAVIWFDGSNEFYADSVKGRFTISRDNSKNTLFLQMNSLRAEDTAVYYCARDLGASVTTSNAENFHHWGQGTLVTVSS
VL: SYELTQPPSVSVSPGQTARITCSGDALPKRYVYWYQQKSGQAPVLVIYEDSKRPSGIPETFSGSSSGTMATLTISGAQVEDEADYYCYSTDSNGHHWVFGGGTKLTVLG
Consider B1, for which a half-maximal effect in assay [1] (EC50) was put at 0.52 nM.

B2: FC5-H62(T33C/A104C)-G4S-6C5 (LC) (bispecific antibody)
heavy: not shown
light: DVQLVESGGGLVQPGGSLRLSCAASGFKITHYCTGWFRQAPGKEREFVSRITWGGDNTFYSNSVKGRFTISRDNSKNTVYLQMNSLRAEDTAVYYCAAGSTSTCTPLRVDYWGQGTLVTVSSGGGGSSYELTQPPSVSVSPGQTARITCSGDALPKRYVYWYQQKSGQAPVLVIYEDSKRPSGIPETFSGSSSGTMATLTISGAQVEDEADYYCYSTDSNGHHWVFGGGTKLTVLGQPKAAPSVTLFPPSSEELQANKATLVCLISDFYPGAVTVAWKADSSPVKAGVETTTPSKQSNNKYAASSYLSLTPEQWKSHRSYSCQVTHEGSTVEKTVAPTECS
For B2, in assay [1], it took 0.98 nM to reach a half-maximal effect (EC50).

B3: FC5-H62(T33C/A104C)-G4S-6C5 hIgG1 (HC) (bispecific antibody)
heavy: not shown
light: SYELTQPPSVSVSPGQTARITCSGDALPKRYVYWYQQKSGQAPVLVIYEDSKRPSGIPETFSGSSSGTMATLTISGAQVEDEADYYCYSTDSNGHHWVFGGGTKLTVLGQPKAAPSVTLFPPSSEELQANKATLVCLISDFYPGAVTVAWKADSSPVKAGVETTTPSKQSNNKYAASSYLSLTPEQWKSHRSYSCQVTHEGSTVEKTVAPTECS
B3 returned a concentration giving a half-maximal response (EC50) in assay [1] of 0.74 nM.

B4: 12F4 hIgG1 (antibody, V domains shown)
VH: EVQLVESGGGLVEPGGSLRLSCAVSGFDFEKAWMSWVRQAPGQGLQWVARIKSTADGGTTSYAAPVEGRFIISRDDSRNMLYLQMNSLKTEDTAVYYCTSAHWGQGTLVTVSS
VL: SYELTQPPSVSVSPGQTARITCSGEALPMQFAHWYQQRPGKAPVIVVYKDSERPSGVPERFSGSSSGTTATLTITGVQAEDEADYYCQSPDSTNTYEVFGGGTKLTVLS
The molecule B4 came in with a 50% effective concentration (EC50) in assay [2] of 2.7 nM.
